Assay results reported in PMC11574045, “A cofactor-induced repressive type of transcription factor condensation can be induced by synthetic peptides to suppress tumorigenesis” (The EMBO Journal, 2024).

Tested on: HEK293FT cells transfected with TF library
Assay: Screening of TF condensates based on fluorescent puncta
Type: cell-based
Settings: Figure 1B numerical data; TF library screen, one value per transcriptional factor
Outline: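 Cells were seeded onto plasmid/PEI-loaded wells (plasmid 1.6 μg/ml final) and grown 60 h. Medium with or without glucose followed for 12 h. Fixed, permeabilized cells were stained against Flag or GAL4 tags, and condensate puncta were quantified from 50 random fields per well.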

| Molecule | Z score of condensed fraction |
| --- | --- |
| MYOG (protein, UniProt P15173 1-224, looked up) Myogenin: MELYETSPYFYQEPRFYDGENYLPVHLQGFEPPGYERTELTLSPEAPGPLEDKGLGTPEHCPGQCLPWACKVCKRKSVSVDRRRAATLREKRRLKKVNEAFEALKRSTLLNPNQRLPKVEILRSAIQYIERLQALLSSLNQEERDLRYRGGGGPQPGVPSECSSHSASCSPEWGSALEFSANPGDHLLTADPTDAHNLHSLTSIVDSITVEDVSVAFPDETMPN | 0.6311 |
| MYSM1 (protein, UniProt Q5VVJ2 1-828, looked up) Deubiquitinase MYSM1: MAAEEADVDIEGDVVAAAGAQPGSGENTASVLQKDHYLDSSWRTENGLIPWTLDNTISEENRAVIEKMLLEEEYYLSKKSQPEKVWLDQKEDDKKYMKSLQKTAKIMVHSPTKPASYSVKWTIEEKELFEQGLAKFGRRWTKISKLIGSRTVLQVKSYARQYFKNKVKCGLDKETPNQKTGHNLQVKNEDKGTKAWTPSCLRGRADPNLNAVKIEKLSDDEEVDITDEVDELSSQTPQKNSSSDLLLDFPNSKMHETNQGEFITSDSQEALFSKSSRGCLQNEKQDETLSSSEITLWTEKQSNGDKKSIELNDQKFNELIKNCNKHDGRGIIVDARQLPSPEPCEIQKNLNDNEMLFHSCQMVEESHEEEELKPPEQEIEIDRNIIQEEEKQAIPEFFEGRQAKTPERYLKIRNYILDQWEICKPKYLNKTSVRPGLKNCGDVNCIGRIHTYLELIGAINFGCEQAVYNRPQTVDKVRIRDRKDAVEAYQLAQRLQSMRTRRRRVRDPWGNWCDAKDLEGQTFEHLSAEELAKRREEEKGRPVKSLKVPRPTKSSFDPFQLIPCNFFSEEKQEPFQVKVASEALLIMDLHAHVSMAEVIGLLGGRYSEVDKVVEVCAAEPCNSLSTGLQCEMDPVSQTQASETLAVRGFSVIGWYHSHPAFDPNPSLRDIDTQAKYQSYFSRGGAKFIGMIVSPYNRNNPLPYSQITCLVISEEISPDGSYRLPYKFEVQQMLEEPQWGLVFEKTRWIIEKYRLSHSSVPMDKIFRRDSDLTCLQKLLECMRKTLSKVTNCFMAEEFLTEIENLFLSNYKSNQENGVTEENCTKELLM | -0.7244 |
| NEUROD (protein, UniProt Q13562 1-356, looked up) Neurogenic differentiation …: MTKSYSESGLMGEPQPQGPPSWTDECLSSQDEEHEADKKEDDLETMNAEEDSLRNGGEEEDEDEDLEEEEEEEEEDDDQKPKRRGPKKKKMTKARLERFKLRRMKANARERNRMHGLNAALDNLRKVVPCYSKTQKLSKIETLRLAKNYIWALSEILRSGKSPDLVSFVQTLCKGLSQPTTNLVAGCLQLNPRTFLPEQNQDMPPHLPTASASFPVHPYSYQSPGLPSPPYGTMDSSHVFHVKPPPHAYSAALEPFFESPLTDCTSPSFDGPLSPPLSINGNFSFKHEPSAEFEKNYAFTMHYPAATLAGAQSHGSIFSGTAAPRCEIPIDNIMSFDSHSHHERVMSAQLNAIFHD | 0.06185 |
| NEUROD3 (protein, UniProt Q92886 1-237, looked up) Neurogenin-1: MPARLETCISDLDCASSSGSDLSGFLTDEEDCARLQQAASASGPPAPARRGAPNISRASEVPGAQDDEQERRRRRGRTRVRSEALLHSLRRSRRVKANDRERNRMHNLNAALDALRSVLPSFPDDTKLTKIETLRFAYNYIWALAETLRLADQGLPGGGARERLLPPQCVPCLPGPPSPASDAESWGSGAAAASPLSDPSSPAASEDFTYRPGDPVFSFPSLPKDLLHTTPCFIPYH | -0.2856 |
| NEUROD4 (protein, UniProt Q9HD90 1-331, looked up) Neurogenic differentiation …: MSKTFVKSKEMGELVNTPSWMDKGLGSQNEVKEEESRPGTYGMLSSLTEEHDSIEEEEEEEEDGEKPKRRGPKKKKMTKARLERFRARRVKANARERTRMHGLNDALDNLRRVMPCYSKTQKLSKIETLRLARNYIWALSEVLETGQTPEGKGFVEMLCKGLSQPTSNLVAGCLQLGPQSVLLEKHEDKSPICDSAISVHNFNYQSPGLPSPPYGHMETHLLHLKPQVFKSLGESSFGSHLPDCSTPPYEGPLTPPLSISGNFSLKQDGSPDLEKSYSFMPHYPSSSLSSGHVHSTPFQAGTPRYDVPIDMSYDSYPHHGIGTQLNTVFTE | 0.614 |
| NEUROG2 (protein, UniProt Q9H2A3 1-272, looked up) Neurogenin-2: MFVKSETLELKEEEDVLVLLGSASPALAALTPLSSSADEEEEEEPGASGGARRQRGAEAGQGARGGVAAGAEGCRPARLLGLVHDCKRRPSRARAVSRGAKTAETVQRIKKTRRLKANNRERNRMHNLNAALDALREVLPTFPEDAKLTKIETLRFAHNYIWALTETLRLADHCGGGGGGLPGALFSEAVLLSPGGASAALSSSGDSPSPASTWSCTNSPAPSSSVSSNSTSPYSCTLSPASPAGSDMDYWQPPPPDKHRYAPHLPIARDCI | -1.044 |
| NEUROG3 (protein, UniProt Q9Y4Z2 1-214, looked up) Neurogenin-3: MTPQPSGAPTVQVTRETERSFPRASEDEVTCPTSAPPSPTRTRGNCAEAEEGGCRGAPRKLRARRGGRSRPKSELALSKQRRSRRKKANDRERNRMHNLNSALDALRGVLPTFPDDAKLTKIETLRFAHNYIWALTQTLRIADHSLYALEPPAPHCGELGSPGGSPGDWGSLYSPVSQAGSLSPAASLEERPGLLGATFSACLSPGSLAFSDFL | 1.376 |
| NFATC1 (protein, UniProt O95644 1-943, looked up) Nuclear factor of activated …: MPSTSFPVPSKFPLGPAAAVFGRGETLGPAPRAGGTMKSAEEEHYGYASSNVSPALPLPTAHSTLPAPCHNLQTSTPGIIPPADHPSGYGAALDGGPAGYFLSSGHTRPDGAPALESPRIEITSCLGLYHNNNQFFHDVEVEDVLPSSKRSPSTATLSLPSLEAYRDPSCLSPASSLSSRSCNSEASSYESNYSYPYASPQTSPWQSPCVSPKTTDPEEGFPRGLGACTLLGSPRHSPSTSPRASVTEESWLGARSSRPASPCNKRKYSLNGRQPPYSPHHSPTPSPHGSPRVSVTDDSWLGNTTQYTSSAIVAAINALTTDSSLDLGDGVPVKSRKTTLEQPPSVALKVEPVGEDLGSPPPPADFAPEDYSSFQHIRKGGFCDQYLAVPQHPYQWAKPKPLSPTSYMSPTLPALDWQLPSHSGPYELRIEVQPKSHHRAHYETEGSRGAVKASAGGHPIVQLHGYLENEPLMLQLFIGTADDRLLRPHAFYQVHRITGKTVSTTSHEAILSNTKVLEIPLLPENSMRAVIDCAGILKLRNSDIELRKGETDIGRKNTRVRLVFRVHVPQPSGRTLSLQVASNPIECSQRSAQELPLVEKQSTDSYPVVGGKKMVLSGHNFLQDSKVIFVEKAPDGHHVWEMEAKTDRDLCKPNSLVVEIPPFRNQRITSPVHVSFYVCNGKRKRSQYQRFTYLPANVPIIKTEPTDDYEPAPTCGPVSQGLSPLPRPYYSQQLAMPPDPSSCLVAGFPPCPQRSTLMPAAPGVSPKLHDLSPAAYTKGVASPGHCHLGLPQPAGEAPAVQDVPRPVATHPGSPGQPPPALLPQQVSAPPSSSCPPGLEHSLCPSSPSPPLPPATQEPTCLQPCSPACPPATGRPQHLPSTVRRDESPTAGPRLLPEVHEDGSPNLAPIPVTVKREPEELDQLYLDDVNEIIRNDLSSTSTHS | -0.245 |
| ATF2 (protein, UniProt P16951 1-487, looked up) Cyclic AMP-dependent …: MSDDKPFLCTAPGCGQRFTNEDHLAVHKHKHEMTLKFGPARNDSVIVADQTPTPTRFLKNCEEVGLFNELASPFENEFKKASEDDIKKMPLDLSPLATPIIRSKIEEPSVVETTHQDSPLPHPESTTSDEKEVPLAQTAQPTSAIVRPASLQVPNVLLTSSDSSVIIQQAVPSPTSSTVITQAPSSNRPIVPVPGPFPLLLHLPNGQTMPVAIPASITSSNVHVPAAVPLVRPVTMVPSVPGIPGPSSPQPVQSEAKMRLKAALTQQHPPVTNGDTVKGHGSGLVRTQSEESRPQSLQQPATSTTETPASPAHTTPQTQNTSGRRRRAANEDPDEKRRKFLERNRAAASRCRQKRKVWVQSLEKKAEDLSSLNGQLQSEVTLLRNEVAQLKQLLLAHKDCPVTAMQKKSGYHTADKDDSSEDLSVPSSPHTEAIQHSSVSTSNGVSSTSKAEAVATSVLTQMADQSTEPALSQIVMAPPSQAQPSGS | 2.014 |
